# Where no end group is shown, it is not given here.
# B1: Phage-2075 (peptide-180 library clone, SEQ ID NO: 2391) (peptide)
# peptide: ADKWCTPTWMCQWL
# notes: Tested as clonal phage supernatant; not shown: pIII filament protein of the bacteriophage to which the peptide is fused for display
# B2: Phage-2076 (peptide-180 library clone, SEQ ID NO: 2392) (peptide)
# peptide: ADKWCIPEWMCEMN
# notes: as for B1
# B3: Phage-2077 (peptide-180 library clone, SEQ ID NO: 2393) (peptide)
# peptide: AEKLCIPPWMCMLS
# notes: as for B1
# B4: Phage-2073 (peptide-180 library clone, SEQ ID NO: 2389) (peptide)
# peptide: VAKMCIPSWMCAEQ
# modifications: cysteine pairing not given here; also: fused to phage pIII, pIII sequence and linker not given here
# notes: as for B1
# B5: Phage-2074 (peptide-180 library clone, SEQ ID NO: 2390) (peptide)
# peptide: VGNWCKPAWMCEMM
# notes: as for B1
# B6: Phage-2072 (peptide-180 library clone, SEQ ID NO: 2388) (peptide)
# peptide: QGNWCKPAWMCSGF
# modifications: cysteine pairing not given here; also: fused to phage pIII, pIII sequence and linker not given here
# notes: as for B1
# B7: Phage-2048 (peptide)
# peptide: VAKWCTPPWMCAWL
# modifications: cysteine pairing not given here; also: fused to phage pIII, pIII sequence and linker not given here
# notes: tested as clonal phage supernatant
# B8: Phage-2058 (peptide)
# peptide: AWKSCIPSWMCEVQ
# notes: tested as crude clonal phage supernatant
# B9: Phage-2063 (peptide)
# peptide: PIKLCTPSWMCIGF
# notes: as for B8
# B10: Phage-2062 (peptide)
# peptide: EGKWCTPIWMCQGF
# notes: as for B8
# B11: Phage-2071 (peptide)
# peptide: IGPWCIPPWMCDHR
# notes: as for B8
# B12: Phage-2069 (peptide)
# peptide: YDHWCTPMWMCHGM
# notes: as for B8
# B13: Phage-2066 (peptide)
# peptide: VSIMCKPMWMCSGT
# notes: as for B8
# B14: Phage-2059 (peptide)
# peptide: DTMRCVPEWMCTGF
# notes: as for B8
# B15: Phage-2067 (peptide)
# peptide: PVKWCIPSWMCSVD
# notes: as for B8
# B16: Phage-2060 (peptide)
# peptide: EHIWCKPDWMCSGF
# notes: as for B8
# B17: Phage-2064 (peptide)
# peptide: YLHSCTPAWMCTGF
# notes: as for B8
# B18: Phage-2068 (peptide)
# peptide: SEKWCIPDWMCQVW
# notes: as for B8
# B19: Phage-2057 (peptide)
# peptide: VEKWCTPPWMCSLF
# notes: as for B8
# B20: Phage-2061 (peptide)
# peptide: EMKWCIPAWMCQSH
# notes: as for B8
# B21: Phage-2065 (peptide)
# peptide: AAKMCVPWWMCEVM
# notes: as for B8
# B22: Phage-2070 (peptide)
# peptide: FEMWCTPSWMCDGF
# notes: as for B8
# Target: T1, Anti-PSMA Fab (SEQ ID NOs: 19, 20)
# T1 construct: In the phage ELISA the PSMA Fab was biotinylated and captured on neutravidin coated plates; also called 006 PSMA Fab
# Assay: phage binding ELISA; PSMA Fab on plate pre-incubated with PSMA antigen as competitor, anti-M13 HRP detection;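 note: crude clonal phage supernatants added without washing to wells preincubated with PSMA in blocking buffer, compared with wells receiving blocking buffer only, then bound phage detected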
# Description: (§1) Clonal phage were harvested as crude supernatants and screened via standard ELISAs. […] Prior to the addition of clonal phage. wells were incubated with blocking buffer and PSMA antigen or blocking buffer alone. Without washing or aspirating, clonal phage supernatants were then added to the wells and incubated for a short time. Wells were then washed followed by detection of bound phage using a horse radish conjugated anti-M13 antibody.
row,Binder,Anti-PSMA Fab signal in the presence of PSMA
1,B1,0.0745
2,B2,0.0844
3,B3,0.101
4,B4,0.0548
5,B5,0.0681
6,B6,0.0983

# Target: T2, Anti-PSMA Fab (SEQ ID NOs: 19, 20)
# T2 construct: Biotinylated and captured on neutravidin coated plates in the phage ELISA; also called 006 PSMA Fab
# Assay: phage binding ELISA; biotinylated PSMA Fab on neutravidin plates, clonal phage supernatant, anti-M13 HRP detection
# Description: as §1
row,Binder,Anti-PSMA Fab signal
1,VVHWCIPEWMCERI (tested as clonal phage supernatant) [Phage-2053],1.78
2,VDKWCIPQWMCDDQ (tested as clonal phage supernatant) [Phage-2054],1.77
3,FPQWCIPIWMCEHT (tested as clonal phage supernatant) [Phage-2052],1.78
4,EAIWCVPKWMCEGM (tested as clonal phage supernatant) [Phage-2050],1.78
5,VMPWCIPQWMCVGE (tested as clonal phage supernatant) [Phage-2049],1.78
6,VDHWCTPAWMCDGF (tested as clonal phage supernatant) [Phage-2047],1.78
7,WLNWCTPEWMCNGF (tested as clonal phage supernatant) [Phage-2056],1.77
8,VPKWCTPAWMCNWN (tested as clonal phage supernatant) [Phage-2051],1.78
9,B7,1.78
10,APKLCIPNWMCVSM (tested as clonal phage supernatant) [Phage-2055],1.77

# Target: T3, Anti-PSMA Fab (SEQ ID NOs: 19, 20)
# T3 construct: Biotinylated PSMA Fab captured on neutravidin coated plates in the phage ELISA; also called 006 PSMA Fab
# Assay: phage ELISA on captured PSMA Fab, wells pre-incubated with the competitor PSMA antigen
# Description: as §1
row,Binder,Anti-PSMA Fab signal in the presence of PSMA (phage binding ELISA)
1,B8,0.0942
2,B9,0.107
3,B10,0.143
4,B11,0.0893
5,B12,0.0688
6,B13,0.072
7,B14,0.066
8,B15,0.0738
9,B16,0.0871
10,B17,0.0668
11,B18,0.0929
12,B19,0.1
13,B20,0.0858
14,B21,0.0753
15,B22,0.0932

# Target: T1, Anti-PSMA Fab (SEQ ID NOs: 19, 20)
# Assay: phage binding ELISA; biotinylated PSMA Fab on neutravidin plate, clonal phage supernatant, anti-M13 HRP detection;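 note: wells were preincubated with blocking buffer either containing PSMA antigen or without it before crude phage supernatant was added, briefly incubated, then washed prior to detection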
# Description: as §1
row,Binder,"Anti-PSMA Fab (SEQ ID NOs: 19, 20) signal"
1,B1,1.76
2,B2,1.76
3,B3,1.76
4,B4,1.76
5,B5,1.76
6,B6,1.76

# Target: T2, Anti-PSMA Fab (SEQ ID NOs: 19, 20)
# Assay: phage binding ELISA; Fab-coated wells pre-incubated with PSMA antigen as competitor, anti-M13 HRP detection
# Description: as §1
row,Binder,Anti-PSMA Fab signal in the presence of PSMA
1,VVHWCIPEWMCERI (tested as clonal phage supernatant) [Phage-2053],0.098
2,VDKWCIPQWMCDDQ (tested as clonal phage supernatant) [Phage-2054],0.116
3,FPQWCIPIWMCEHT (tested as clonal phage supernatant) [Phage-2052],0.065
4,EAIWCVPKWMCEGM (tested as clonal phage supernatant) [Phage-2050],0.0786
5,VMPWCIPQWMCVGE (tested as clonal phage supernatant) [Phage-2049],0.0873
6,VDHWCTPAWMCDGF (tested as clonal phage supernatant) [Phage-2047],0.106
7,WLNWCTPEWMCNGF (tested as clonal phage supernatant) [Phage-2056],0.147
8,VPKWCTPAWMCNWN (tested as clonal phage supernatant) [Phage-2051],0.12
9,B7,0.197
10,APKLCIPNWMCVSM (tested as clonal phage supernatant) [Phage-2055],0.0746

# Target: T3, Anti-PSMA Fab (SEQ ID NOs: 19, 20)
# Assay: phage ELISA; biotinylated PSMA Fab on neutravidin plate, bound phage detected with anti-M13-HRP;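 note: crude clonal phage supernatants added, without a wash, to wells pretreated with PSMA antigen in blocking buffer or with blocking buffer only, then briefly incubated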
# Description: as §1
row,Binder,Anti-PSMA Fab signal (phage binding ELISA)
1,B8,1.77
2,B9,1.77
3,B10,1.77
4,B11,1.76
5,B12,1.76
6,B13,1.77
7,B14,1.77
8,B15,1.76
9,B16,1.77
10,B17,1.77
11,B18,1.76
12,B19,1.77
13,B20,1.77
14,B21,1.77
15,B22,1.76

# Reference: patent publication US20260242478A1 (published 2026)
